Assays:
[1] = target: Grb2 SH2 (UniProt P62993); test: SH2 binding enrichment of the phosphorylated peptide, bacterial display (enrichment ratio); higher = better substrate or ligand; peptides without Tyr show the background
[2] = target: c-Src SH2; test: as above
[3] = target: SHP2-C SH2; test: as above
[4] = target: EPHB2 (UniProt P29323); test: phosphorylation enrichment, bacterial display (enrichment ratio); higher = better substrate or ligand; peptides without Tyr show the background
[5] = test system: c-Abl (mouse); test: as above
[6] = test system: c-Src; test: as above
[7] = target: FGFR1 (UniProt P11362); test: as above
[8] = target: Jak2 (UniProt O60674); test: as above
[9] = test system: Fer (mouse); test: as above
[10] = target: EPHB1 (UniProt P54762); test: as above
[11] = target: Hck (UniProt P08631); test: as above
[12] = target: FGFR3 (UniProt P22607); test: as above
[13] = target: MERTK (UniProt Q12866); test: as above
[14] = target: Fyn (UniProt P06241); test: as above
[15] = test system: AncSZ; test: as above
[16] = target: Fes (UniProt P07332); test: as above
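For SH2 binding enrichment of the phosphorylated peptide, bacterial display in this document: peptide library displayed on the E. coli surface as eCPX fusions, selected cells deep-sequenced, score is each peptide's frequency after selection divided by its frequency in the input.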
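For phosphorylation enrichment, bacterial display in this document: 11-residue human phosphosite peptides and single-mutation variants displayed on the E. coli surface, counted by deep sequencing, each peptide's frequency after selection divided by its frequency in the unselected input library; frequency after pTyr selection over input frequency; kinase dosed for 20-30% of maximal phosphorylation in three min.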

Chain of Grb2 SH2 (P62993 whole entry, looked up): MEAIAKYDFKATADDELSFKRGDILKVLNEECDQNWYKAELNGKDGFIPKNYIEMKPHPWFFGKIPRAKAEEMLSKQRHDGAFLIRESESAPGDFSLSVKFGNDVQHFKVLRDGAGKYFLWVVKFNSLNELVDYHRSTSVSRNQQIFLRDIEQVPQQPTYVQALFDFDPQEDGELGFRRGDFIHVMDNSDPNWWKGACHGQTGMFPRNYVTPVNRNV
Chain of EPHB1 (P54762 whole entry, looked up): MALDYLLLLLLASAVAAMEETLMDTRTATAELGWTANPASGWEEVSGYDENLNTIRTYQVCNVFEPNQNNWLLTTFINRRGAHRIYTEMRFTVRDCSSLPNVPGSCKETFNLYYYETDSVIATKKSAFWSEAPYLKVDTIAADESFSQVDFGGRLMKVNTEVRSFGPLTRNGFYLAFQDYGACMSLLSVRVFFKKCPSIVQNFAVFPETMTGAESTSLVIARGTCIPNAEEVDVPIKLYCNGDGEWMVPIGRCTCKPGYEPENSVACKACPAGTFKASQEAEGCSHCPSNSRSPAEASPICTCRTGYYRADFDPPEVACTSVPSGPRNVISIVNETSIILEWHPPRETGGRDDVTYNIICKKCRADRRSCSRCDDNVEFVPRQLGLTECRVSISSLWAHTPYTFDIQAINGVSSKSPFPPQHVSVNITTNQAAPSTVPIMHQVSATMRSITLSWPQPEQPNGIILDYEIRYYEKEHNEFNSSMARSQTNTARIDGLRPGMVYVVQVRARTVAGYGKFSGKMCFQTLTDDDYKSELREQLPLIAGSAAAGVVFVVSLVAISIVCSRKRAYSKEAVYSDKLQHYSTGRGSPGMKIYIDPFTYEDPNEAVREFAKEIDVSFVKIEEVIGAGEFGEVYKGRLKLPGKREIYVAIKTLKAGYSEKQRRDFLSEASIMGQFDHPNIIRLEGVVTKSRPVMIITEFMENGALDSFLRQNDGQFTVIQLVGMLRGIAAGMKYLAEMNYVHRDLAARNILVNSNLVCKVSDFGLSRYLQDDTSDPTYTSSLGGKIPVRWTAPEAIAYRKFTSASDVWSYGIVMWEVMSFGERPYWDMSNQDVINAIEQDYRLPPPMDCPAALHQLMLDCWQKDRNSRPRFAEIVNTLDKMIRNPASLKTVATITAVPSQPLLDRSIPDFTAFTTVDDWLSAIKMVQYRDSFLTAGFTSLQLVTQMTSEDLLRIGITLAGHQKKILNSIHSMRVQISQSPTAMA
Chain of EPHB2 (P29323 whole entry, looked up): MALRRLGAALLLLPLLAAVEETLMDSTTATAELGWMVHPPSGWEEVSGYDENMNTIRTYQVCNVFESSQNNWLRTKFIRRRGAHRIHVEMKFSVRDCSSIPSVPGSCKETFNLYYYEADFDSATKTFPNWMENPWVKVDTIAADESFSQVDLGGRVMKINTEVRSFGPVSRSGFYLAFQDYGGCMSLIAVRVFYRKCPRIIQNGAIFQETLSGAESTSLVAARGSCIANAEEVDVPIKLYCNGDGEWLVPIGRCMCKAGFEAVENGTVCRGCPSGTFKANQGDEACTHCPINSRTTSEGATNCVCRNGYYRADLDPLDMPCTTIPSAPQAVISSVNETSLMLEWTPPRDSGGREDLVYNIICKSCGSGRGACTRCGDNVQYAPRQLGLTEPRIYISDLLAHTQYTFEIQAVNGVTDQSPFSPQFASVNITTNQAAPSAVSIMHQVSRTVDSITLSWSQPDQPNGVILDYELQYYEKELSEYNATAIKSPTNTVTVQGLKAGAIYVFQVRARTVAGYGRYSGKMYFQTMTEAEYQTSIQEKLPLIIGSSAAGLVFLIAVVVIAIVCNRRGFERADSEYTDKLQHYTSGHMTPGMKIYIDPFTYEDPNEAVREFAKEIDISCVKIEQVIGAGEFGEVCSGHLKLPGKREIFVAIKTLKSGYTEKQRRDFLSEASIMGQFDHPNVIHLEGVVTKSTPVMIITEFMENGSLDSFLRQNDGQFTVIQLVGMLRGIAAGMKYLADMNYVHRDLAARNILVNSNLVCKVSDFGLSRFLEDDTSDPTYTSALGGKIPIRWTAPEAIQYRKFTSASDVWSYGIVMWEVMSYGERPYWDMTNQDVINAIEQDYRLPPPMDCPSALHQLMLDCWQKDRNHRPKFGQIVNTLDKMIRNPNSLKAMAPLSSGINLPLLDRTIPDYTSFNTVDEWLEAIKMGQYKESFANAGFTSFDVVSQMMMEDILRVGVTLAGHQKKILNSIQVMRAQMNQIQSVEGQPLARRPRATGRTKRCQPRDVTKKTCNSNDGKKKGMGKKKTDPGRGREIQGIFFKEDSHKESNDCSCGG
Chain of Fyn (P06241 whole entry, looked up): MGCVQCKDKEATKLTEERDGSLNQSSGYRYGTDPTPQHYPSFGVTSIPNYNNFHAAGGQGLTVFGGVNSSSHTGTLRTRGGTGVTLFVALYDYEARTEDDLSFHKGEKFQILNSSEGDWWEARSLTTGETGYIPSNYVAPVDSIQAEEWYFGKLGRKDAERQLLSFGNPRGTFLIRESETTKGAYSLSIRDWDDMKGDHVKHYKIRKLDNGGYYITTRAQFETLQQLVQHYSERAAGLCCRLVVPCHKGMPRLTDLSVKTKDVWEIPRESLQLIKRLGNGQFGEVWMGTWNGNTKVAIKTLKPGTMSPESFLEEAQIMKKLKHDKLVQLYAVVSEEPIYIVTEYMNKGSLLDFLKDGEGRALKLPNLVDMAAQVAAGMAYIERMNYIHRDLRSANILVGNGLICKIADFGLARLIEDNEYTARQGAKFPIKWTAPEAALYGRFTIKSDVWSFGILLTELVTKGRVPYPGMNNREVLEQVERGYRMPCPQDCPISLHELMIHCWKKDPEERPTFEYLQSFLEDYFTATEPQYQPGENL
Chain of MERTK (Q12866 whole entry, looked up): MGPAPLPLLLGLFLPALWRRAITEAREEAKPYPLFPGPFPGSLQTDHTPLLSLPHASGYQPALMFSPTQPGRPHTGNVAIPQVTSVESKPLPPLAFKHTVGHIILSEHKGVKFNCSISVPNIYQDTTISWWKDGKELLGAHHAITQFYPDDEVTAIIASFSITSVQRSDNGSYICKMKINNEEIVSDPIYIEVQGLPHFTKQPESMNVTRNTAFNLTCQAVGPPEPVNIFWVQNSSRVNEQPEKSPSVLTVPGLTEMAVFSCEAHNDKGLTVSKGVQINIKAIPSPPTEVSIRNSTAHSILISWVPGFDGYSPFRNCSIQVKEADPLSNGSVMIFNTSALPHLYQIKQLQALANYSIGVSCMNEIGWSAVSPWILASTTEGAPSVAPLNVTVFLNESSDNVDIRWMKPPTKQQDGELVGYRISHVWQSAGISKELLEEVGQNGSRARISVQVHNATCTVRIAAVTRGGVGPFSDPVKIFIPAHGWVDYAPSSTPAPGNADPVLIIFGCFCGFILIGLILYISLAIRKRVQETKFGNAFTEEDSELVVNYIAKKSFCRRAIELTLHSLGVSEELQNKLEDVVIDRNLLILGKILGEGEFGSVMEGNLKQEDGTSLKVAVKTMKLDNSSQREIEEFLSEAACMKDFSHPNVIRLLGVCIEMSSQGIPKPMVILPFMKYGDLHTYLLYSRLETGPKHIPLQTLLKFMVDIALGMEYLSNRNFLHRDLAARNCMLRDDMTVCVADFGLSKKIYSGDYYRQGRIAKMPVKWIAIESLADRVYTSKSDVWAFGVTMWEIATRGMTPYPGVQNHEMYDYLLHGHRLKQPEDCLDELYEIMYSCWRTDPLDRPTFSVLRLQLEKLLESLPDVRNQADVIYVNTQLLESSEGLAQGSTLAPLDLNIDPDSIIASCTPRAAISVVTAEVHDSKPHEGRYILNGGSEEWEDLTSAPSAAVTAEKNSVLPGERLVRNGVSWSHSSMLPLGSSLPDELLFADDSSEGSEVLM
Chain of Fes (P07332 whole entry, looked up, the tested form may be a part): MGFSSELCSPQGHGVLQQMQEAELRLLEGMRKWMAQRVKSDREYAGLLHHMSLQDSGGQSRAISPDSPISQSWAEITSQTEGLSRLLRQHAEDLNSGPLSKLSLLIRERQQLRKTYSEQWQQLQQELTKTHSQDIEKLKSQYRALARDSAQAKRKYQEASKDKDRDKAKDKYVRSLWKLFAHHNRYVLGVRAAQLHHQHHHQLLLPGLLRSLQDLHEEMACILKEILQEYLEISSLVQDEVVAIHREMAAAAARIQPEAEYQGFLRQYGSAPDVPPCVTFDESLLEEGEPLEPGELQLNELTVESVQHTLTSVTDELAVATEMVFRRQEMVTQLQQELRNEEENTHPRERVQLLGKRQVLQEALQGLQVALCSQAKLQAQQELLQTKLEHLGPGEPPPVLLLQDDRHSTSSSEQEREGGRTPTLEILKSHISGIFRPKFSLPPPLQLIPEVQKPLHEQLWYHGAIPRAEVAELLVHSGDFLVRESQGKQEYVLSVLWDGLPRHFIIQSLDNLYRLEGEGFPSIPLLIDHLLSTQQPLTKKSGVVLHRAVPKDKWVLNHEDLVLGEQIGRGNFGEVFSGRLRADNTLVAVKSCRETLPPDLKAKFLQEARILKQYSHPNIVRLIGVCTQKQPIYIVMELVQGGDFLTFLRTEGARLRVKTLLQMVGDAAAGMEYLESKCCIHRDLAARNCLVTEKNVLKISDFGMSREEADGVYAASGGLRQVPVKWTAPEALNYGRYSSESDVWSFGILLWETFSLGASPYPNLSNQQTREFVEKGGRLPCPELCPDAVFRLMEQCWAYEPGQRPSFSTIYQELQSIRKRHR

| Sequence | SH2 binding enrichment [1] | SH2 binding enrichment [2] | SH2 binding enrichment [3] | phosphorylation enrichment [4] | phosphorylation enrichment [5] | phosphorylation enrichment [6] | phosphorylation enrichment [7] | phosphorylation enrichment [8] | phosphorylation enrichment [9] | phosphorylation enrichment [10] | phosphorylation enrichment [11] | phosphorylation enrichment [12] | phosphorylation enrichment [13] | phosphorylation enrichment [14] | phosphorylation enrichment [15] | phosphorylation enrichment [16] |
| --- | --- | --- | --- | --- | --- | --- | --- | --- | --- | --- | --- | --- | --- | --- | --- | --- |
| KVNKIYHPDFI [LIG3_Y767_Y768H] | 0.889 | 0.494 | 0.999 | 0.417 | 0.473 | 0.43 | 0.398 | 0.574 | 0.395 | 0.39 | 0.488 | 0.539 | 0.443 | 0.417 | 0.542 | 0.627 |
| KSELAYEIFDK [MYOM2_Y1024] | 0.956 | 0.956 | 0.776 | 0.603 | 0.915 | 4.27 | 0.65 | 1.24 | 1 | 0.596 | 0.951 | 0.782 | 4.45 | 1.94 | 2 | 1.21 |
| RTMPDYTSFNT [EPHB2_Y912_I909M] | 0.935 | 0.521 | 0.463 | 0.961 | 0.618 | 1.31 | 1.05 | 0.692 | 0.705 | 0.724 | 0.591 | 1 | 0.459 | 1.07 | 1.38 | 0.947 |
| GGFTRYCDGKK [PROS1_Y266_C265R_YF] | 0.972 | 0.753 | 0.881 | 0.315 | 0.601 | 0.423 | 0.369 | 0.653 | 0.436 | 0.393 | 0.403 | 0.449 | 0.403 | 0.368 | 0.771 | 0.722 |
| TTASRYLKVSD [MYOM2_Y871_N869S] | 0.534 | 0.515 | 0.54 | 0.293 | 0.54 | 0.362 | 0.366 | 0.434 | 0.377 | 0.347 | 0.311 | 0.467 | 0.313 | 0.373 | 0.489 | 0.636 |
| MGGSLYFSYPD [HIKESHI_Y55_V54L] | 0.77 | 0.656 | 0.605 | 5.75 | 1.16 | 4.41 | 3.4 | 2.11 | 0.802 | 4.44 | 3.45 | 3.12 | 7.06 | 3.46 | 1.49 | 1.26 |
| RNDQVYQPLRD [CD3D_Y149] | 0.787 | 0.663 | 0.491 | 1.18 | 0.728 | 4.45 | 1.17 | 0.673 | 0.575 | 1.26 | 10.9 | 0.927 | 1.26 | 5.01 | 0.875 | 0.7 |
| SEELHYFVQNH [UQCRC2_Y207] | 0.806 | 0.587 | 0.819 | 0.661 | 1.07 | 0.685 | 1.12 | 1.08 | 0.562 | 0.647 | 0.524 | 1.39 | 0.841 | 0.523 | 1.45 | 1.16 |
| ALHRPYGCDVE [ABL2_Y80] | 1.01 | 0.582 | 0.72 | 0.456 | 0.571 | 0.324 | 0.412 | 0.541 | 0.538 | 0.59 | 0.379 | 0.531 | 0.357 | 0.447 | 0.871 | 0.782 |
| DVRQEYPGMIL [PLXND1_Y616] | 0.889 | 0.433 | 0.555 | 0.517 | 0.669 | 0.403 | 0.455 | 0.76 | 0.394 | 0.413 | 0.497 | 0.588 | 0.487 | 0.41 | 0.675 | 0.949 |
| DRPSEYAARQL [ANXA13_Y90] | 0.746 | 0.523 | 0.699 | 0.456 | 0.579 | 0.389 | 0.445 | 0.498 | 0.341 | 0.408 | 0.428 | 0.482 | 0.437 | 0.453 | 0.598 | 0.655 |
| YGPPQYNIQYS [ERBB2IP_Y977] | 0.728 | 0.322 | 0.986 | 0.592 | 0.858 | 0.617 | 0.462 | 0.655 | 0.672 | 0.412 | 0.72 | 0.557 | 0.602 | 0.549 | 0.989 | 0.802 |
| IHHIDYYKKTT [FGFR1_Y653] | 0.793 | 0.567 | 1.22 | 0.544 | 0.524 | 0.487 | 0.473 | 0.534 | 0.961 | 0.408 | 0.425 | 0.484 | 0.508 | 0.381 | 0.783 | 0.741 |
| KPRKLYTIKKP [BRD2_Y715_P714L] | 1.07 | 0.972 | 1.19 | 0.444 | 0.456 | 0.442 | 0.328 | 0.532 | 0.413 | 0.374 | 0.452 | 0.427 | 0.408 | 0.375 | 0.608 | 0.496 |
| APRKVYDTRDD [ZFPL1_Y215] | 0.84 | 0.372 | 0.648 | 0.44 | 0.485 | 0.422 | 0.427 | 0.614 | 0.403 | 0.45 | 0.493 | 0.581 | 0.372 | 0.408 | 0.641 | 0.736 |
| YCVDCYKNFVA [FHL1_Y213] | 1.19 | 1.02 | 0.838 | 0.514 | 0.737 | 0.507 | 0.572 | 0.726 | 0.532 | 0.564 | 0.54 | 0.651 | 0.722 | 0.532 | 0.668 | 0.832 |
| FVSIVCNDSGE [TSC2_Y1650_Y1650C] | 0.583 | 0.57 | 0.66 | 0.646 | 0.767 | 0.478 | 0.534 | 1.18 | 0.613 | 0.644 | 0.537 | 0.921 | 0.464 | 0.476 | 1.12 | 1.21 |
| PESCFYKESWL [IQGAP2_Y630_L629F] | 1.05 | 0.63 | 0.823 | 0.671 | 0.766 | 0.516 | 0.707 | 0.941 | 0.973 | 0.772 | 0.555 | 1.31 | 0.538 | 0.616 | 1.51 | 1.57 |
| QRVLLYVRRET [GRHL3_Y518] | 0.713 | 0.488 | 0.421 | 0.577 | 0.41 | 0.834 | 0.676 | 0.9 | 0.468 | 0.461 | 0.669 | 0.781 | 0.801 | 0.699 | 1.01 | 0.796 |

Source: the supplement of paper PMC10065799, “High-throughput profiling of sequence recognition by tyrosine kinases and SH2 domains using bacterial peptide display” (eLife, 2023)
